# Reference: patent publication US10889844B2, “Methods of degrading or hydrolyzing a polysaccharide” (Novozymes A/S, priority 2010, dated 2021)
# “Also recorded” adds a separate entry of the source.
# B1: CelS2: multidomain CBM33 with C-terminal CBM2 from Streptomyces coelicolor A3(2) (SEQ ID NO: 7) (protein)
# chain: MVRRTRLLTLAAVLATLLGSLGVTLLLGQGRAEAHGVAMMPGSRTYLCQLDAKTGTGALDPTNPACQAALDQSGATALYNWFAVLDSNAGGRGAGYVPDGTLCSAGDRSPYDFSAYNAARSDWPRTHLTSGATIPVEYSNWAAHPGDFRVYLTKPGWSPTSELGWDDLELIQTVTNPPQQGSPGTDGGHYYWDLALPSGRSGDALIFMQWVRSDSQENFFSCSDVVFDGGNGEVTGIRGSGSTPDPDPTPTPTDPTTPPTHTGSCMAVYSVENSWSGGFQGSVEVMNHGTEPLNGWAVQWQPGGGTTLGGVWNGSLTSGSDGTVTVRNVDHNRVVPPDGSVTFGFTATSTGNDFPVDSIGCVAP
# modifications: Streptomyces coelicolor
# Assays:
# Type in all cases: biochemical
# [1] = Filter paper degradation by […] with CelS2 or E7 (FIG. 20), sugars by HPLC
# Procedure: Reactions were run in 50 mM Bis-tris/HCl pH 6.5, 1 mM MgCl2, at 50° C. and 900 rpm (horizontal agitation). Control reactions containing the cellulosic substrate suspended in the same buffer as used for the enzyme assays gave no detectable signal for either glucose or cellobiose.
# (§1) The mobile phase consisted of 5 mM sulfuric acid and the flow rate used was 1.0 ml/min. Eluted glucose and cellobiose were monitored by recording refractive index. Quantification was obtained by running glucose and cellobiose standards.
# (§2) Assays performed to evaluate the function of E7 and CelS2 were set up using a variety of cellulosic substrates (AVICEL®, filter paper and steam exploded wood chips from poplar), at either pH 5.5 (20 mM sodium acetate buffer), 6.5 (20 mM Bis-Tris buffer) or 8.0 (20 mM Tris buffer) in reaction mixtures containing 1.0 mM MgCl2.
# [2] = Soluble products released from AVICEL by CBM33 proteins (MALDI-TOF MS, HPAEC)
# Procedure: The main peaks are annotated with molecular weight and degree of polymerization (DP).
# The DP of the oxidized cellooligosaccharides is indicated by n, where n=3 (the shortest labelled oxidized cellooligosaccharide has a DP of three (=n)). […] Peak annotation was performed by comparing the chromatogram with the chromatogram obtained for a chemically prepared mixture of oxidized cellooligosaccharides with lengths varying from DP1 to DP10.
# The main peaks are annotated with molecular weight and degree of polymerization (DP). All annotated peaks are Na adducts of native cellooligosaccharides, oxidized cellooligosaccharides (denoted “ox”) or the sodium salts of oxidized cellooligosaccharides.
# Products were analyzed after 20 hours of incubation in 20 mM ammonium acetate buffer pH 5.0, 1 mM MgCl2 at 50° C. and 900 rpm (vertical agitation).
# Separation of native and oxidized cellooligosaccharides was achieved using a Dionex Bio-LC equipped with a CarboPack PA1, a column temperature of 30° C. and a flow of 0.25 ml/min, with starting conditions, i.e., 0.1 M NaOH. A stepwise linear gradient with increasing amounts of sodium acetate was applied, going from 0.1 M NaOH and 0.1 M sodium acetate in 10 minutes, then to 0.1 M NaOH and 0.3 M sodium acetate for 25 minutes then increasing to 0.1 M NaOH and 1.0 M sodium acetate at 30 minutes which was kept for 10 minutes. Column reconditioning was achieved by a one minute gradient to initial conditions and subsequent running at initial conditions for 14 minutes. Eluted oligosaccharides were monitored by PAD detection. Chromatograms were recorded and analysed using Chromeleon 7.0 Peak identification was achieved by a procedure including the following steps: oxidized cellooligosaccharides were separated using a Dionex Ultimate 3000 UHPLC system carrying a Hypercarb 150×2.1 mm column (Thermo Scientific) running a gradient of water/0.1% TFA and acetonitrile/0.1% TFA (from 20 to 80% acetonitrile) according to the method developed by Westphal et al., 2010, Journal of Chromatography A 1217: 689-695. Eluted peaks were manually fractioned, freeze-dried, re-dissolved in MilliQ water and identified using MALDI-TOF MS. Pure oxidized cellooligosaccharides with known identity were then analyzed using the HPEAC method described above in order to establish the identity of the oxidized cellooligosaccharides generated by CelS2 and E7.
# [3] = Filter paper degradation by Cel7A with CelS2 (FIG. 21), cellobiose by HPLC
# Procedure: These reactions were conducted in 50 mM sodium acetate pH 5.5, 1 mM MgCl2, at 50° C., 900 rpm (horizontal incubation). Only the cellobiose concentration was quantified as the amount of glucose was minor (less than 5% of the total sugar). Control reactions containing the cellulosic substrate suspended in the same buffer as used for the enzyme assays gave no detectable signal for either glucose or cellobiose.
# as §1, §2
# [4] = Degradation of steam exploded saw dust from poplar by […] with CelS2 (FIG. 24); conditions: 1.0 μM CelS2, CELLUCLAST, 1.0 mM reduced glutathione, pH 5.5, 20 hours
# Procedure: as §2
# [5] = Cellulase boosting properties of CelS2 at various pHs with monocomponent Cel7A; conditions: CelS2 with Cel7A; data not shown
# Description: When probing the cellulose boosting properties of CelS2 at various pHs using monocomponent Cel7A as the cellulose hydrolytic component, pH 5.5 came out as the optimal pH for activity. […] The most obvious reason for the decrease in cellulose hydrolysis at increasing pH is the pH stability and efficiency of Cel7A. […] CelS2 is a bacterial enzyme that originates from Streptomyces species that are known to grow optimally on cellulosic substrates in approximately neutral pH conditions (Kontro et al., 2005, Letters in Applied Microbiology 41: 32-38.).
# [6] = Filter paper degradation by HjCel7A with CelS2 over time (FIG. 26); conditions: 40 μg/ml CelS2, 5 μg/ml HjCel7A, pH 5.5, 50° C.
# Procedure: By far the major products of these reactions are cellooligosaccharides released by the cellulases (whose activity is boosted by CelS2). In the case of HjCel7A, the main product is cellobiose and formation of this product is shown. RG, indicates the presence of a reductant, in this case reduced glutathione. […] The reactions were run at 50° C.
# [7] = Soluble oxidized products from other cellulosic variants by CelS2 (MALDI-TOF MS); conditions: results not shown
# Description: Finally, other cellulosic variants (filter paper and steam exploded sawdust from poplar) were also probed as substrates for CelS2. […] This is most likely due to the high DP of the cellulose in these substrates; cleavages on the crystalline surfaces will not easily lead to release of soluble (=short) cellooligosaccharides when the overall DP is very high. AVICEL® is special in that it is a form of microcrystalline cellulose that has a very low DP (˜60-100; Wallis et al., 1992, Carbohydrate Polymers 17: 103-110 and Mormann and U, 2002, Carbohydrate Polymers 50: 349-353) compared to that of the other substrates tested.
# [8] = Time course of filter paper cellulose degradation by […] with CelS2 (FIG. 25)
# Procedure: In reactions where no CelS2 was present, 40 μg/ml purified BSA was added in order to maintain an identical protein load. […] Data are mean+/−SD (N=3); error bars indicate SD.
molecule,measurement,setting,value
B1,increase of glucose yield versus CELLUCLAST only,"[1]; no external electron donor, 24 hours",~3.0 fold
same,increase of glucose yield versus CELLUCLAST only,"[1]; no external electron donor, 120 hours",~9 fold
same,increase of glucose yield versus CELLUCLAST only,"[1]; with external electron donor (1 mM reduced glutathione), 24 hours",~5 fold
same,increase of glucose yield versus CELLUCLAST only,"[1]; with external electron donor (1 mM reduced glutathione), 120 hours",~11 fold
same,CelS2 activity at pH 8.0,"[2]; AVICEL, FIG. 19",active
same,release of soluble native/oxidized cellooligosaccharides from AVICEL,[2]; with external electron donor (ascorbic acid or reduced glutathione),soluble oligomeric products were observed
same,improvement of Cel7A activity (cellobiose yield),"[3]; absence of external electron donor, 18 hours",5.5 fold
same,improvement of Cel7A activity (cellobiose yield),"[3]; absence of external electron donor, 40 hours",7.3 fold
same,improvement of Cel7A activity (cellobiose yield),"[3]; presence of external electron donor, 18 hours",6.7 fold
same,improvement of Cel7A activity (cellobiose yield),"[3]; presence of external electron donor, 40 hours",9.8 fold
same,cellulase boosting effect (cellobiose release),[4],~2 fold
same,activity at pH 6.5,[5],Less activity
same,activity at pH 8.0,[5],no activity could be detected
same,optimal pH for activity,[5],5.5
same,effect on Cel7A activity (cellobiose formation),[6],"boosts the activity of the cellulase, Cel7A; also recorded: prolongs the activity of Cel7A"
same,soluble oxidized cellooligosaccharides,[7],Soluble oxidized cellooligosaccharides were not observed
same,effect on CELLUCLAST (CC) production of soluble glucose over time,"[8]; 10 mg/ml filter paper, 0.8 μg/ml CC, pH 5.5",production of soluble glucose continues
same,Glc or Glc2 released without cellulase,[8]; reactions with only CelS2,did not yield detectable amounts of Glc or Glc2
